Data published in paper PMC12599251, “Nitration-driven structural changes in Hsp90 linked to gain of pathological functions” (Biochemical Journal, 2025).

Molecular target: the molecule itself
Assay: AUC; sedimentation velocity, 42,000 rpm, 20°C, 11-15 uM protein, absorbance at 280 nm, continuous c(S) distribution (SEDFIT); peroxynitrite-treated samples dialyzed beforehand

B1: Human Hsp90β with Y33 and Y56 replaced by phenylalanine, treated with 0.5 mM peroxynitrite (natural protein)
chain: not shown
modifications: oxidised with 0.5 mM peroxynitrite; Y276, Y484 and Y596 are named as also prone to nitration
notes: Human Hsp90β, UniProtKB P08238, gene HSP90AB1; Y33 and Y56 replaced by phenylalanine, oxidised in vitro with peroxynitrite; Peroxynitrite gives a mixed product; also called Hsp90^F33-56 + ONOO^-; Hsp90^F33-F56 + ONOO^-; source: E. coli BL21-AI, purified (Ni-NTA, Sephacryl-300 SEC), then treated with 0.5 mM peroxynitrite
For B1, the “stoichiometry N” value was 2.

B2: Human Hsp90β with Y33 and Y56 replaced by phenylalanine (natural protein)
chain: not shown
notes: Human Hsp90β, UniProtKB P08238, gene HSP90AB1; Y33 and Y56 replaced by nitration-resistant phenylalanine; also called Hsp90^F33-56; Hsp90^F33-F56; source: E. coli BL21-AI, purified (Ni-NTA, Sephacryl-300 SEC)
With B2 the “stoichiometry N” value was 2.
